Here are results for two molecules from patent US20150166643A1 (Alexion, published 2015).

The target in assay [1] is T1, human factor B (purified, Complement Technology A135) (human, UniProt P00751 26-764).
T1 construct: also called fB; human complement factor B
Kind of assay: BLI (Octet), mAb on anti-human Fc biosensor, 12.5 nM human factor B. Here is the method:
(§1) Binding kinetics of TA106-originated mAbs were analyzed using a FortéBio® Octet® biosensor (FortéBio, Inc.) in a similar protocol as described previously. In one exemplary experiment, wild type (CLS011) and the variant S33A (CLS013) mAbs were captured on anti-human Fc biosensors at a concentration of 5 μg/mL, diluted in 1× kinetics buffer (KB, a proprietary formulation containing PBS/Tween). Capture (loading) was carried out for 400 seconds, followed by briefly dipping the biosensors in 1×KB as a wash for 30 seconds. Associations with a titration series of purified human Factor B (Complement Technology, Tyler, Tex.), which concentrations range from 50 to 3 nM (diluted in 1×KB), were carried out for 300 seconds.
A general note: BLI is a label-free optical method that tracks binding on a fibre tip over time.

In assay [2] the target is T1, human factor B (purified, Complement …). Description: cell-based or functional assay.
Assay [3] shares this target. Kind of assay: BLI (Octet), mAb on anti-human Fc biosensor, 25 nM human factor B. Here is the method: as §1
For assay [4] the target is unchanged. Kind of assay: SPR, captured mAb, soluble factor B (summary table). An excerpt: (§2) Binding kinetics of mAbs were further characterized using Biacore's Surface Plasmon Resonance (SPR) technology (GE Healthcare, Piscataway, N.J.). For a detailed description of SPR and its applications in affinity measurement, please see Karlsson and Larsson, Antibody Engineering: Methods and Protocols, Methods in Molecular Biology (2003), 248: 389-415. In one exemplary experiment, TA106 Fab and derivative mAbs were captured on chips of a Biacore 3000 analyzer and samples of human factor B of different concentrations were flowed as the antigen over the surface to model soluble human factor B binding, using protocols recommended by the manufacturer (e.g., in the product brochure #BR-9003-31). All these referenced publications are hereby incorporated by reference in their entirety. […] Fab TA106 (Xoma, Lot#TTA1007, 20 mg/mL) was then flowed over one flow cell, followed by injections of human factor B on both flow cells. Concentrations (factor B) between 3.1-200 nM were run. The surface was regenerated between each cycle. […] The affinities of mAbs, i.e., CLS011, CLS012, and CLS013, were determined using a similar capture approach. In one exemplary experiment, human anti-Fc antibody was amine coupled to two flow cells of a CM5 chip. Each of the TA106-originated mAbs was then flowed over one flow cell, followed by injecting human factor B (3.1-200 nM) on both flow cells. […]
(Surface plasmon resonance follows binding to a sensor surface in real time, without labels.)

For assay [5] the target is unchanged. Description: SPR (Biacore), CLS011 captured on anti-Fc surface, soluble factor B 3.1-100 nM flowed; Chi2 0.283.
Text: as §2

Assay [6] shares this target. Description: BLI (Octet), mAb on anti-human Fc biosensor, 50 nM human factor B. On the procedure: as §1
The target is the same in assay [7]. Kind of assay: SPR (Biacore 3000), mAb captured by anti-Fc antibody on CM5 chip, soluble human factor B 3.1-200 nM.
Text: as §2

Assay [8] has the same target. Kind of assay: SPR (Biacore), CLS013 captured on anti-Fc surface, soluble factor B 3.1-100 nM flowed; Chi2 1.05.
Text: as §2

Assay [9] shares this target. Kind of assay: ELISA, human factor B coated at 0.5 ug/mL, detection with sheep anti-human kappa light chain HRP, abs 450 nm against nM antibody. On the procedure: The binding activities of these mAbs towards factor B were analyzed by ELISA using standard protocols. In one exemplary experiment, MaxiSorp™ ELISA plates (Nunc, #439454, Rochester, N.Y.) were coated with 50 μL of human factor B (Complement Technology, A135, 1 mg/mL, lot 14c) at a concentration of 0.5 μg/mL in carbonate coating buffer (0.795 g carbonate+1.46 g bicarbonate+1 mL 1% NaN₃ (final concentration of 0.002%) in 500 mL water, pH 9.6 (lot 02 August 10)). Plates then were covered with plate sealers and incubated at 37±1° C. for one hour. Following coating, wells were emptied of reagent and washed in a BioTek® ELx405 plate washer (BioTek, Winooski, Vt.) for three times with 200 μL wash solution (PBS/0.05% Tween 20) per well. Following washes, wells were blocked with 100 μL of BSA (1% w/v) and incubated for one hour at room temperature. Wells were then washed again as described above. Fifty microliter samples (i.e., TA106 Fab, CLS011 mAb, CLS012 mAb, and CLS013 mAb) were then added to wells and incubated for one hour at room temperature. […] The plate was read on a Benchmark™ microplate reader (Bio-Rad Laboratories, Hercules, Calif.) at 450 nm. Standard curves were plotted with 4 parameter fit with DeltaSoft® 1.6 software, and sample concentrations were determined from the standard curves.
For orientation: ELISA stands for enzyme-linked immunosorbent assay.

T1 sequence (P00751 26-764): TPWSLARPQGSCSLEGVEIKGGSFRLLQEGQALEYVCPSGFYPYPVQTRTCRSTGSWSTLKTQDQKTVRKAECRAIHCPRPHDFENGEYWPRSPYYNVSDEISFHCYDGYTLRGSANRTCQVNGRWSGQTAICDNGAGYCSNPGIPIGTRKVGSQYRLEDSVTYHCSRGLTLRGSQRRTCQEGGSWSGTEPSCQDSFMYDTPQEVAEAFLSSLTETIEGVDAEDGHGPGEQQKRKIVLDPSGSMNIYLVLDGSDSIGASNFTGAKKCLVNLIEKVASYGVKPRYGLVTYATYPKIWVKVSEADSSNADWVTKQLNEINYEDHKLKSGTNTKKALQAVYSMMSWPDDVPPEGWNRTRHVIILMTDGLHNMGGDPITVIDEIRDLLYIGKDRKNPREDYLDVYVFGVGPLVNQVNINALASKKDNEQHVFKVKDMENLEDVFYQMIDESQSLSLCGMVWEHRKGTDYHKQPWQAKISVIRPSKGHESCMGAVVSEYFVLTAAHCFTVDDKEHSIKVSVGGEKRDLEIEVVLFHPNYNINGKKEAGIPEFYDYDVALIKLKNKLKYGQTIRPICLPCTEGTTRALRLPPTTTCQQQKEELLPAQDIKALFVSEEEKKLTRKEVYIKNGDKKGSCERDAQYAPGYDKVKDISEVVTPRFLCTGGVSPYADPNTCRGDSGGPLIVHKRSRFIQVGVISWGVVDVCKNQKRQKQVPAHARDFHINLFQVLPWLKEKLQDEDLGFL

B1: CLS011 (TA106-derivative full-length IgG2/4 mAb, wild type light chain, expressed in CHO cells) (antibody, V domains shown)
VH: EVQLVQSGAEVKKPGASVKVSCKASGYSFTDYYMTWVRQAPGQGLEWMGWINPNSGGTKYAQKFQGRVTMTRDTSISTAYMELSRLRSDDTAVYYCARGYYANSAWFAYWGQGTLVTVSS
VL: DIVMTQSPDSLAVSLGERATINCKSSQSLLNSSTSKNYLAWYQQKPGQPPKLLIYWASTRESGVPDRFSGSGSGTDFTLTISSLQAEDVAVYYCKQVYNLPWTFGQGTKLEIKR
modifications: N-linked glycans on the N31-S32-S33 motif of CDR1; N-linked glycans on the heavy chain (possibly at N296)
notes: Human IgG2/4 full-length mAb; also called CLS011 mAb; TA106-derivative mAb
In the case of B1, the Kd was 11.1 nM in assay [1]; 17.3 nM in assay [3]; 15 nM in [4]; 24.9 nM in assay [6]; roughly 15.4 nM in assay [7]. For the same molecule, the dissociation rate constant (koff) in assay [1] turned out to be 0.00289 s⁻¹; in assay [3] it was 0.00297 s⁻¹; in assay [5], 0.00253 s⁻¹; in assay [6], 0.00418 s⁻¹. Besides, the kon stood at 261000 M⁻¹ s⁻¹ in [1], 171000 M⁻¹ s⁻¹ in assay [3], 165000 M⁻¹ s⁻¹ in assay [5] and 168000 M⁻¹ s⁻¹ in assay [6]. For the same molecule, the “IC50 (read off the curve); lysis of rabbit red blood cells in 10% normal human serum” value in assay [2] was roughly 50 nM.

B2: CLS013 (TA106-derivative S33A variant, full-length IgG2/4 mAb, expressed in CHO cells) (antibody, V domains shown)
VH: EVQLVQSGAEVKKPGASVKVSCKASGYSFTDYYMTWVRQAPGQGLEWMGWINPNSGGTKYAQKFQGRVTMTRDTSISTAYMELSRLRSDDTAVYYCARGYYANSAWFAYWGQGTLVTVSS
VL: DIVMTQSPDSLAVSLGERATINCKSSQSLLNSATSKNYLAWYQQKPGQPPKLLIYWASTRESGVPDRFSGSGSGTDFTLTISSLQAEDVAVYYCKQVYNLPWTFGQGTKLEIKR
modifications: N-linked glycans on the heavy chain
notes: Human IgG2/4 full-length mAb; also called CLS013 mAb; TA106 variant S33A
Regarding B2, the dissociation constant Kd was 37.7 nM in assay [1]; 52.2 nM in assay [3]; 18 nM in assay [4]; 32.1 nM in [6]; roughly 17.6 nM in assay [7]. Also, the dissociation rate constant (koff) in [1] worked out at 0.00428 s⁻¹; in [3], 0.00472 s⁻¹; in assay [8] it was 0.00311 s⁻¹; in assay [6], 0.00504 s⁻¹. The on-rate constant (kon) in assay [1] stood at 114000 M⁻¹ s⁻¹; in assay [3] it was 90300 M⁻¹ s⁻¹; in [8], 177000 M⁻¹ s⁻¹; in assay [6] it was 157000 M⁻¹ s⁻¹. The “IC50 (read off the curve); lysis of rabbit red blood cells in 10% normal human serum” value in assay [2] was roughly 20 nM. Moreover, the “EC50 (read off the curve)” value in assay [9] was roughly 0.4 nM.

A word on the Kd: it is the free concentration of one partner at which half of the binding sites on the other are occupied at equilibrium, for simple one-to-one binding. As usually defined, the koff is the first-order rate constant of dissociation. A higher koff goes with a short-lived complex. A word on the kon: it is the second-order rate constant of association. Low values mean slower complex formation, high ones faster complex formation. In general, EC50 (read off the curve) refers to the concentration that produces a half-maximal response. The low end stands for an effect from little substance, the high end for a need for much substance.
